2 molecules from PMC9733292 (Journal of Translational Medicine, 2022) can be followed below.

The assay addresses T1, CD3 receptor (CD3ε subunit of the T cell receptor complex) (Homo sapiens, UniProt P07766).
T1 construct: also called CD3 antigen; CD3 receptors
Nature of the assay: flow cytometry on cells. Conditions: one partner purified. Background: Flow cytometry measures light scatter and fluorescence of single cells or particles in a stream.

T1 sequence (P07766 23-207, one chain of several): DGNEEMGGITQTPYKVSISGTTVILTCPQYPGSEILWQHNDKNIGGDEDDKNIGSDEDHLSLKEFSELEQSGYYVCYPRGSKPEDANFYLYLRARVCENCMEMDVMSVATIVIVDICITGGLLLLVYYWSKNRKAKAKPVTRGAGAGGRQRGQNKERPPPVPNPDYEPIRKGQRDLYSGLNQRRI

B1: scFv OKT3 wild-type (scFv, V domains shown)
VH: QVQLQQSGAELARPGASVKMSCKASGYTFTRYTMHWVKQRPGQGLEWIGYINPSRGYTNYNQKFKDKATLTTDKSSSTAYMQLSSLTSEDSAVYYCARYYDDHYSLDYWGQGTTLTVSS
VL: QIVLTQSPAIMSASPGEKVTMTCSASSSVSYMNWYQQKSGTSPKRWIYDTSKLASGVPAHFRGSGSGTSYSLTISGMEAEDAATYYCQQWSSNPFTFGSGTKLEIN
notes: also called OKT3 single chain variable fragment
Turning to B1, the binding result is “binds”.

B2: scFv OKT3 E129AzK (scFv, V domains shown)
VH: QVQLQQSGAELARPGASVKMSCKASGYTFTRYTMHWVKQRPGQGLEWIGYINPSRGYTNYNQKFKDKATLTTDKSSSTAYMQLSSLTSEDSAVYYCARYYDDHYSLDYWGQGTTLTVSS
VL: B1 VL
notes: also called scFv OKT3 E129AzK variant
With B2, the binding result was “binds”.
